US20180326053A1 (OKLAHOMA MEDICAL RESEARCH FOUNDATION, published 2018)
Substitutions are numbered along the chain they refer to. Names may count otherwise. Values belong to the binder of their own block, whether it stands above or below them.

Columns and labels:
[1] = biological target: T1, human Protein C (unactivated, zymogen) (human, UniProt P04070 43-461); assay: ELISA, plate coated with human PC, IgG titrated (PC-ELISA)
T1 construct: mature; also called PC; hPC
Protocol: (§1) Plates (Nunc, cat#442404) were coated with 100 μl of human aPC (1 μg/ml) or hPC (2 μg/ml) diluted in DPBS (Gibco, cat#14040) overnight (o/n) at 4° C. After washing, the ELISA plate was blocked with 200 μl MPBST for 1 hr at RT, and tapped dry on a stack of paper towels. To each well 100 μl of IgG to be tested was added, and incubated for 1 hr at RT (for EC₅₀ determinations 1:3 dilutions were performed starting at 20 nM). Plates were washed 5× with PBST. 100 μl of anti-hIgG Fc-HRP (Sigma, cat#A0170) diluted 1:10,000 in PBST was added to each well. Plates were washed and 100 μl/well of TMB substrate was added and incubated at room temperature for 5 min. 100 μl/well of 1 N HCl was added to terminate the reaction. The plate was read with an ELISA plate reader (Biotek, Elx405) at 450 nm wavelength.

[2] = biological target: T2, human activated Protein C (human, Light chain (chain 1): the Gla domain holds gamma-carboxyglutamates, from memory at pos 6, 7, 14, 16, 19, 20, 25, 26 and 29, written E. Pos 71 is beta-hydroxy-Asp, written D. N-glycans are present. …); assay: aPC-ELISA, human aPC coated, IgG titrated
T2 construct: also called aPC; APC
T2 light: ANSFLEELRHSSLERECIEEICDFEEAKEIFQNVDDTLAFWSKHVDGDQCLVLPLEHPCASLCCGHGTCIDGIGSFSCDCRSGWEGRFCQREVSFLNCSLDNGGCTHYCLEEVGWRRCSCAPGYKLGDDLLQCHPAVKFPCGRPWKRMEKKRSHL
T2 heavy: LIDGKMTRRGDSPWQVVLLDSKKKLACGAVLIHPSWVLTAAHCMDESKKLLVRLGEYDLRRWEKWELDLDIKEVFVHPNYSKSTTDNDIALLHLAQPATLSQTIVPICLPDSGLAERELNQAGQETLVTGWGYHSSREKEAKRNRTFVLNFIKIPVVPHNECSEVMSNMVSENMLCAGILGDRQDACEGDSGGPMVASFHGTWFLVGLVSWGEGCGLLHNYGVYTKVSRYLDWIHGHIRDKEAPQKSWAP
Protocol: as §1

[3] = biological target: T1, human Protein C (unactivated, zymogen); assay: PC-ELISA, hPC coated
Protocol: as §1

[4] = biological target: T2, human activated Protein C; assay: SPR, human aPC
[5] = biological target: T2, human activated Protein C; assay: Biacore (SPR)

B1: TPP-3656 (HU1573-V3-hIgG2Kappa) (antibody, V domains shown)
VH: EVQLVESGGGLVQPGGSLRLSCAASGFTFSNYYLNWVRQAPGKGLEWVGDIRLKSNNYEKHYAESVKGRFTISRDDSKNSLYLQMNSLKTEDTAVYYCAREGDYFDYWGQGTLVTVSS
VL: DIVLTQSPASLAVSPGQRATITCKASESVDSFGATFMHWYQQKPGQPPKLLIYLASNLESGVPARFSGSGSGTDFTLTINPVEANDTANYYCQQNNEDPYTFGQGTKLEIKR
notes: also called TPP-3656 VK7-3
binding result [1]: no binding (tested: 10 µM (log M -5)) | EC50 [2]: 0.67 nM

B2: TPP-3356 (H1573VK2-VH1Cgl1-hIgG2Kappa) (antibody, V domains shown)
VH: B1 VH with G49A, A99I, L113T
VL: DIVMTQTPLSLSVTPGQPASISCKASESVDSFGATFMHWYLQKPGQPPQLLIYLASNLESGVPDRFSGSGSGTDFTLKISRVEAEDVGVYYCQQNNEDPYTFGQGTKLEIKR
notes: also called TPP-3356 VK2D-29
binding result [3]: no binding (tested: up to 10 µM) | EC50 [2]: 0.5 nM | Kd [4]: 13.6 nM

B5: TPP-3357 (H1573Vk2A-VH1Cgl2-hIgG2Kappa) (antibody, V domains shown)
VH: B1 VH with N31S, L34M, G49S, E64D, D76N, S77A, K89R, T90A
VL: B2 VL with M4L, K24R
Kd [4]: 23.4 nM

B6: TPP-4885 (BAY1896502) (antibody, human IgG2, kappa, V domains shown)
VH: B1 VH
VL: B1 VL with N85D
notes: TPP-3656 with the N85D mutation in the light chain; IgG2/kappa like TPP-3656; also called type II ab BAY1896502
Kd [5]: 14 nM

More lines, in order of falling EC50 [2], values ahead:

binding result [1]: no binding (tested: 10 µM (log M -5)) | EC50 [2]: 0.65 nM
B7: TPP-3658 (HU1573-V1-hIgG2Kappa) (antibody, V domains shown)
VH: B1 VH with G49A, A99I, L113T
VL: B1 VL
notes: also called TPP-3658 VK7-3

binding result [1]: no binding (tested: 10 µM (log M -5)) | EC50 [2]: 0.43 nM
B3: TPP-3657 (HU1573-V2-hIgG2Kappa) (antibody, V domains shown)
VH: EVQLVESGGGLVQPGGSLRLSCAASGFTFSNYYLNWVRQAPGKGLEWVADIKSNNYEKHYAESVKGRFTISRDNAKNSLYLQMNSLRAEDTAVYYCAREGDYFDYWGQGTLVTVSS
VL: B1 VL
notes: also called TPP-3657 VK7-3

binding result [3]: no binding | EC50 [2]: 0.42 nM
B4: TPP-3639 (HU1573-V4-hIgG2Kappa) (antibody, V domains shown)
VH: B1 VH with N31S, L34M, G49A, E64D, D76N, S77A, K89R, T90A
VL: B1 VL with K24R
notes: also called TPP-3639 VK7-3
